Target: fusin/CXCR4 receptor (human) (UniProt P61073)

purified human SDF-1β chemokine, prepared in E. coli and containing an N-terminal methionine residue (from UniProt P48061) (ligand)
anti-fusin antibody staining of Jurkat cells after 3-hour incubation at 37 degrees C, Median Channel (Median Channel): 22.3

From patent publication US6730296B1
